Earlier results in publication PMC10361719.

Biological target: Gag (Human immunodeficiency virus 1) (UniProt O93182)

Chain of Gag (O93182 2-500): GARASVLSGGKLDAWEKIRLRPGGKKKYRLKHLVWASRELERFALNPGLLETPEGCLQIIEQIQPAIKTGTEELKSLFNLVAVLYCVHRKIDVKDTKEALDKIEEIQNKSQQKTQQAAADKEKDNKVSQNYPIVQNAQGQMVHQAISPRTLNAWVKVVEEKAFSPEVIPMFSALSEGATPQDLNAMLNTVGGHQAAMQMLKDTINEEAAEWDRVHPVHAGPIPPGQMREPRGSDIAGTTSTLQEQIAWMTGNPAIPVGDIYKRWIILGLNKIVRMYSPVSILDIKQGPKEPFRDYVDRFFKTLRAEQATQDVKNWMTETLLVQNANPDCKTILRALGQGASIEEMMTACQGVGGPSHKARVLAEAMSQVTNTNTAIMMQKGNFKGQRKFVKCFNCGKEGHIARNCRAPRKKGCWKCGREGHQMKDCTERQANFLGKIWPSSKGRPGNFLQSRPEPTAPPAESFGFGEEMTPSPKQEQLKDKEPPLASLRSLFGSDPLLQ

For Gag (from UniProt O93182), the Kd is given as 5.5 µM.
